This experiment deals with T1, TNKS2 ARC4 fused with mCerulean (CFP) (human, UniProt Q9H2K2 488-649).
T1 construct: Tankyrase 2 (TNKS2), human, ankyrin repeat cluster 4 (ARC4); residues 487-649 are stated only for the crystallised TNKS2 ARC4; Vector pNIC-CFP: mCerulean inserted between the 6xHis-tag and the TEV site of pNIC28-Bsa4; the label reads CFP first, so the tags are probably N-terminal; also called CFP-TNKS2 ARC4; source: E. coli BL21(DE3), purified (IMAC, SEC)
T1 sequence: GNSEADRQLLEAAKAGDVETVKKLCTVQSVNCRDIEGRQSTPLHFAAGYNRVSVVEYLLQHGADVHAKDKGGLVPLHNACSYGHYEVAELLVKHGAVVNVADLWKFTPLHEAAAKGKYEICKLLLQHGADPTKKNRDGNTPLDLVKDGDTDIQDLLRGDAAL
The experiment can be described thus: FRET or BRET; ratiometric FRET in solution: CFP-TNKS1/2 ARC 100 nM and YFP-REAGDGEE 200 nM, 10 mM Bis-Tris Propane pH 7, 3% PEG 20000, 0.01% Triton X-100, 0.5 mM TCEP; small-molecule compounds added (screen at 30 uM, dose response); 1 M guanidine hydrochloride as control of total inhibition. To be noted: both partners purified. On the technique in general: BRET reads energy transfer from a luciferase to a nearby fluorophore.

Ends that are not written are not given here.

B1: 8-residues peptide optimized for the binding of ARCs (REAGDGEE) fused with mCitrine (YFP) (peptide)
chain: REAGDGEE
modifications: also: fused with mCitrine (YFP)
notes: Vector pNIC-YFP: mCitrine inserted between the 6xHis-tag and the TEV site of pNIC28-Bsa4; the label reads YFP first, so the peptide probably stands at the C-terminal end of the fusion; also called optimized peptide; source: E. coli BL21(DE3), purified (IMAC, SEC)
As for B1, the binding result is “binds”.
